Holding throughout (experiment): SPR, antibody captured, C2 as analyte;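 further: biacore SPR at 37 °C, anti-C2 mAbs captured via goat anti-human IgG on CM5 chips, double-referenced sensorgrams fit to a 1:1 kinetic or steady-state model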
Test [1] concerns the target T1, human complement C2 (wild type) (human, UniProt P06681 21-752).
T1 construct: Full-length human C2 (NP_000054) with C-terminal 8x His tag, secreted from Expi293F cells and purified from the supernatant; also called WT; huC2
T1 sequence: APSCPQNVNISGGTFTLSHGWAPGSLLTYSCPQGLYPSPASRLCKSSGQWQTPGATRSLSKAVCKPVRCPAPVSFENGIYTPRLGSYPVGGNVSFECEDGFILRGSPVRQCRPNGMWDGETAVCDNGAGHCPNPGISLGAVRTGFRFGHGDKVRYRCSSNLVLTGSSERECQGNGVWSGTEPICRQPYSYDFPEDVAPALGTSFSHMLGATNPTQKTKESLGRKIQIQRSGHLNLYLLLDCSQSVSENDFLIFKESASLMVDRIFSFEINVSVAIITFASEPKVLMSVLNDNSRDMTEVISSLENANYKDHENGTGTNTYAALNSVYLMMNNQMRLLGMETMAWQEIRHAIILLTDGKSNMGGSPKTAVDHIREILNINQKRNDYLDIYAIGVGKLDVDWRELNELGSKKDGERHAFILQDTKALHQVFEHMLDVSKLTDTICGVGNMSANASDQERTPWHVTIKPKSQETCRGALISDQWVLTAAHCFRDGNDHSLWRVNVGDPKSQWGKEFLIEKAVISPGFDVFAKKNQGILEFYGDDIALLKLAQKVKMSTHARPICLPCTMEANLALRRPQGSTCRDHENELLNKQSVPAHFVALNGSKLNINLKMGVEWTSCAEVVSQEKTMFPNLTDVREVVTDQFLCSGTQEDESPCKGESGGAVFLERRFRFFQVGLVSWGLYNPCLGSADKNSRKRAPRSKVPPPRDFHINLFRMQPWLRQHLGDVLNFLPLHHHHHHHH

The target of the next test is T2, human C2 K415A (human, UniProt P06681 21-752).
T2 sequence: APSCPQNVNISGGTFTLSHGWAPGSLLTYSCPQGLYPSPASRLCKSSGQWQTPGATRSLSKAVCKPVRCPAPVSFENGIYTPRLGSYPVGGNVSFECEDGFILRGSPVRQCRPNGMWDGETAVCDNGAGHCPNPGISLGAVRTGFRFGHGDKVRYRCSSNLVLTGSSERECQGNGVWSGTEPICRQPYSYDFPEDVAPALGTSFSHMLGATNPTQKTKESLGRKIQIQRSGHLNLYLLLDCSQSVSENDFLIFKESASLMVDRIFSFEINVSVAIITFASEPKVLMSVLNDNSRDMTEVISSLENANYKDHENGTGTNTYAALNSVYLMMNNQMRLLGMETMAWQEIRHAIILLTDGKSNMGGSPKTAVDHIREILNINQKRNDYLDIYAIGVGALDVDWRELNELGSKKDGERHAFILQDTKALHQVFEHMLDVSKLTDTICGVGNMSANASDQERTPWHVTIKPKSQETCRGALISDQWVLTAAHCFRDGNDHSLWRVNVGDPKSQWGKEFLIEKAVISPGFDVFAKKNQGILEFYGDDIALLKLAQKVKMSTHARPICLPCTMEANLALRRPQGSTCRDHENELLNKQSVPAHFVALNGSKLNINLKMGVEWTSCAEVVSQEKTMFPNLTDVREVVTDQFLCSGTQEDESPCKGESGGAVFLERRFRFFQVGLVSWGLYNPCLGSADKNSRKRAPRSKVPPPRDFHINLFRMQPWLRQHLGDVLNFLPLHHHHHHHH

The next test addresses T3, human C2 A472S (human, UniProt P06681 21-752).
T3 sequence: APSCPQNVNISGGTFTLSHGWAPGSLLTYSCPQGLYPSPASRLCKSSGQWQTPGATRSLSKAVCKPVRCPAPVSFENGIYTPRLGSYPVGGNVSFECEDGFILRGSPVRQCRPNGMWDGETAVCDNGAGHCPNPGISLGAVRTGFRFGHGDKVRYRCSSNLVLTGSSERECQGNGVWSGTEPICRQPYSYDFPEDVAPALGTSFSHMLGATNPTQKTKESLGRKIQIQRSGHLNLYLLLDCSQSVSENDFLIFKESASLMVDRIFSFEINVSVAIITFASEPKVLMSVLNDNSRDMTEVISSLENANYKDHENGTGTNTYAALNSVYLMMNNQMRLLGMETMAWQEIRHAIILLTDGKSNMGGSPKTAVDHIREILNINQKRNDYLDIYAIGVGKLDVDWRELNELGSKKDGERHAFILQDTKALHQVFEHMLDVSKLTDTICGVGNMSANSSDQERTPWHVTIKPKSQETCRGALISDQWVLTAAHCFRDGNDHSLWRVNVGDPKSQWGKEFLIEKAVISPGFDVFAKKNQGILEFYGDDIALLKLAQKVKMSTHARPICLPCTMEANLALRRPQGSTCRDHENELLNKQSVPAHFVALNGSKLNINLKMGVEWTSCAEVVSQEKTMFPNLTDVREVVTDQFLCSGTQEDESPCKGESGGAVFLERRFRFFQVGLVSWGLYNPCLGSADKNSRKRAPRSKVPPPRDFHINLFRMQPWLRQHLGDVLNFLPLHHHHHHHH

B1: RF16-226 (antibody, human IgG4 S228P, lambda)
heavy: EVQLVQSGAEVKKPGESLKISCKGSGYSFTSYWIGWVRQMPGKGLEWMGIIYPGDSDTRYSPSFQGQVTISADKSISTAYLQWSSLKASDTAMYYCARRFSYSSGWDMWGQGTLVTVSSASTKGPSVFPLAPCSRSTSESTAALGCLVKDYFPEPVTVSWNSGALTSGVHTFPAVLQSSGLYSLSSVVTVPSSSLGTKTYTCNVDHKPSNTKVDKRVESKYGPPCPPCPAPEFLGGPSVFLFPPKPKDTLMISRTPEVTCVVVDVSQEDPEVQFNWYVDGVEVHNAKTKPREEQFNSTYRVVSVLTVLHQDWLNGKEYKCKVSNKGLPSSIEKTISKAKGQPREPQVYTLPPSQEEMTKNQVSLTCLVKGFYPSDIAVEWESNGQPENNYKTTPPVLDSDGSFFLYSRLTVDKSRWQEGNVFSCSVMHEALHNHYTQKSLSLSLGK
light: SYELTQPPSVSVSPGQTARITCSGDALTSKYVAWYQQKSGLAPLLVIYEDTRRPSGIPAKFSGSSSGSVATLTISGAHGDDEADYYCYSTDASGHQRVFGGGTKLTVLSQPKAAPSVTLFPPSSEELQANKATLVCLISDFYPGAVTVAWKADGSPVKAGVETTKPSKQSNNKYAASSYLSLTPEQWKSHRSYSCQVTHEGSTVEKTVAPTECS
notes: pH-dependent anti-C2 antibody from a phage display library; also called WT
As to B1, the Kd was found to be 10.1 nM in test [1], 11.7 nM with human C2 K415A and 53 nM in the test with human C2 A472S.
